{"source": "patent US20180177763A1", "about": "“SMALL MOLECULES THAT MIMIC OR ANTAGONIZE ACTIONS OF GRANULOCYTE COLONY-STIMULATING-FACTOR (G-CSF)” (published 2018)", "binders": {"B1": {"name": "[125I]-G-CSF (ligand)", "chain": "TPLGPASSLPQSFLLKCLEQVRKIQGDGAALQEKLVSECATYKLCHPEELVLLGHSLGIPWAPLSSCPSQALQLAGCLSQLHSGLFLYQGLLQALEGISPELGPTLDTLQLDVADFATTIWQQMEELGMAPALQPTQGAMPAFASAFQRRAGGVLVASHLQSFLEVSYRVLRHLAQP", "modifications": "125I radiolabel (specific activity 46.55 TBq/mmol); labelled residue not stated"}}, "key": {"[1]": {"molecular_target": "T1, Granulocyte-colony stimulating factor receptor (G-CSF-R) (human)", "T1 chain": "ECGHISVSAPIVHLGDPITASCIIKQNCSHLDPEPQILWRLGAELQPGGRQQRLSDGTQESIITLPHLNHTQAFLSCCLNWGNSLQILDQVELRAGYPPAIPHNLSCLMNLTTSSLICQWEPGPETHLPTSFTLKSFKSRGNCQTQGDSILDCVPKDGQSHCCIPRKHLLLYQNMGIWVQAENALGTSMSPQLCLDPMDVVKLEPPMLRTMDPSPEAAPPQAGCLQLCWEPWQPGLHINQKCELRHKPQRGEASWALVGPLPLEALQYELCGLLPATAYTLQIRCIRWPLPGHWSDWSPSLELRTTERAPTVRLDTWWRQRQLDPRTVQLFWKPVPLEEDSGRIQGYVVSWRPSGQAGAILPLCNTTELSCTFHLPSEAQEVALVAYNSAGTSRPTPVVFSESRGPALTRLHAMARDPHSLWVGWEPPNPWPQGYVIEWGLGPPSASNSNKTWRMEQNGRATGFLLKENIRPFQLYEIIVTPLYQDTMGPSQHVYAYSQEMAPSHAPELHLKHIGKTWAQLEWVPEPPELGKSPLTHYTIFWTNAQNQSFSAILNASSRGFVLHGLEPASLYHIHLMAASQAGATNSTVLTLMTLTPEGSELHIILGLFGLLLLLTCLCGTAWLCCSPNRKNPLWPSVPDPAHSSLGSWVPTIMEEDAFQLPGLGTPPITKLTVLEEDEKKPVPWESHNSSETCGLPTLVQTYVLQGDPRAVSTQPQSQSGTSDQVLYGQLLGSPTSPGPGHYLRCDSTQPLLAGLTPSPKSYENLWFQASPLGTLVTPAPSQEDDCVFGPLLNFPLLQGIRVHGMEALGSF", "experiment": "saturation binding of radioligand to THP-1 monocytic cells, nonlinear regression", "method": "(§1) Binding of [¹²⁵I]-G-CSF was measured using previously described method (Kondo, S., et al. Eur. J. Haematol. 1991, 46, 223-30) with some modifications (Pennington, A., et al. Alzheimer's Disease and Parkinsonism 2013, 3, 121). [¹²⁵I]-G-CSF (specific activity 46.55 TBq/mmol) was purchased from Perkin Elmer (Waltham, Mass.). Cells were incubated in 180 μL of binding medium containing 0.2% BSA, 5 mM MgSO₄, and 50 mM Hepes, pH 7.2 at a concentration of 1.5×10⁷ cells/mL and the appropriate concentration of [¹²⁵I]-G-CSF. Incubations were carried out at room temperature with periodic shaking to ensure continuous mixing of cells and radioactive ligand. […] Nonspecific binding of [¹²⁵I]-G-CSF was measured by incubations in the presence of a 100-fold molar excess of unlabeled G-CSF. […] Bound and free ligand activities were counted after cutting tubes in two pieces and placing the tips and tops, respectively into separate scintillation vials. […] The specific binding was determined from the amount of bound [¹²⁵I]-G-CSF blocked by competition with excess unlabeled G-CSF. The parameters of saturation binding experiments including dissociation constant (Kd), maximum binding capacity (Bmax) and binding cooperativity (h) were calculated with GraphPad Prism 5 software (La Jolla, Calif.) by using nonlinear regression analysis. […]"}, "[2]": {"molecular_target": "T1, Granulocyte-colony stimulating factor …", "experiment": "saturation binding of radioligand to SH-SY5Y neuronal cells, nonlinear regression", "method": "as §1"}, "[3]": {"molecular_target": "T1, Granulocyte-colony stimulating factor …", "experiment": "saturation binding of radioligand to THP-1 monocytic cells (value in the text differs from Table 2)", "method": "as §1"}, "[4]": {"molecular_target": "T1, Granulocyte-colony stimulating factor …", "experiment": "saturation binding of radioligand to SH-SY5Y neuronal cells (value in the text differs from Table 2)", "method": "as §1"}}}
{"binder": "B1", "values": [{"measurement": "Kd", "setting": "[1]", "result": 53.8, "unit": "pM"}, {"measurement": "Kd", "setting": "[2]", "result": 608, "unit": "pM"}, {"measurement": "Kd", "setting": "[3]", "result": 57.5, "unit": "pM"}, {"measurement": "Kd", "setting": "[4]", "result": 607, "unit": "pM"}]}
